Laboratory results published in doi:10.1101/2021.09.16.459956.

Molecular target: Paracoccidioides americana (Pb03) Cbp1 (Paracoccidioides americana (Pb03))
Assay: crystal structure

Paracoccidioides americana (Pb03) Cbp1 (natural protein)
stoichiometry N: 2
